Test results taken from patent US20240415975A1 (ABTIS, published 2024).
Values joined by “and” are separate entries in the source; they are usually repeats but may differ in a detail not shown here. Equal entries are not always repeated.

B1: ADC-A (MMAE conjugated with antibody-A) (antibody, human IgG1, kappa, V domains shown)
VH: QVQLVESGGGVVQPGRSLRLSCAASGFSLTTYGVHWVRQAPGKGLEWVAVIWAGGSTNYNSALMSRFTISRDNSKNTLYLQMNSLRAEDTAVYYCARAAYYGNGLDYWGQGTMVTVSS
VL: DIVMTQSPLSLPVTPGEPASISCKSSQTLLNSGNQKNYLTWYLQKPGQSPQLLIYWASTGESGVPDRFSGSGSGTDFTLKISRVEAEDVGVYYCQNAYFYPFTFGGGTKVEIKR
modifications: payload (PEG8)2-BG-MMAE linked through a linker to lysine residue 246 or 248 (EU numbering) of each heavy chain (DAR 2)
notes: which of K246 or K248 carries the payload is not resolved
B2: anti-Claudin 18.2 antibody (Anti-CLDN18.2 mAb) (antibody-A) (antibody, human IgG1, kappa, V domains shown)
VH: B1 VH
VL: B1 VL
notes: two heavy and two light chains; Elsewhere called an IgG1 type anti-CLDN18.2 antibody; Obtained from GenScript ProBio

Experiments:
[1] = target: Claudin 18.2 protein (CLDN18.2), expressed on cells (UniProt P56856); assay: cell-based ELISA (OD 450 nm) on SNU601 cells (CLDN18.2+); regression in GraphPad Prism
[2] = target: Claudin 18.2 protein (CLDN18.2), expressed on cells (UniProt P56856); assay: cell-based ELISA (OD 450 nm) on MIA PaCa-2-CLDN18.2 cells; regression in GraphPad Prism
[3] = target: CLDN18.2 virus-like particle (VLP) in which the claudin 18.2 protein (CLDN18.2) was expressed (UniProt P56856); assay: indirect ELISA (OD 450 nm) on plate coated with CLDN18.2 VLP; regression in GraphPad Prism
[4] = target: Claudin 18.2 protein (CLDN18.2), expressed on cells (UniProt P56856); assay: cell-based ELISA (OD 450 nm) on PATU8988S cells (CLDN18.2+); regression in GraphPad Prism
[5] = target: T1, Claudin 18.2 protein (CLDN18.2), expressed on cells (UniProt P56856-2 1-261); assay: cell-based or functional assay
[6] = target: T2, CLDN18.2 virus-like particle (VLP) in which the claudin 18.2 protein (CLDN18.2) was expressed (UniProt P56856 1-261); assay: indirect ELISA on plate coated with CLDN18.2 VLP; regression in GraphPad Prism (row labelled Kd, text says EC50)
T2 construct: Bought reagent; also called CLDN18.2 VLP; CLDN18.2~VLP

[7] = target: T1, Claudin 18.2 protein (CLDN18.2), …; assay: cell-based ELISA on CHO-K1 cells transiently transfected with CLDN18.2; regression in GraphPad Prism (row labelled Kd, text says EC50)
Description: (§1) The measured results were used for regression analysis in GraphPad PRISM® 9.0 software to calculate EC50 and Bmax.

[8] = target: T3, Claudin 18.1 protein (CLDN18.1), expressed on CHO-K1 cells (UniProt P56856 1-261, limits assumed); assay: cell-based ELISA on CHO-K1 cells transiently transfected with CLDN18.1
T3 construct: whole, on cells; also called CLDN18.1~CHO-K1
Description: as §1

Molecule | Bmax [1] | Bmax [2] | Bmax [3] | Bmax [4] | IC50 (nM), cell viability (CellTiter-Glo), MIA PaCa-2 (CLDN18.2+) [5] [nM] | IC50 (nM), cell viability (CellTiter-Glo), NUGC4 (CLDN18.2+) [5] [nM] | IC50 (nM), cell viability (CellTiter-Glo), PATU8988S (CLDN18.2+) [5] [nM] | IC50 (nM), cell viability (CellTiter-Glo), SNU601 (CLDN18.2+) [5] [nM] | Kd [6] | Kd [7] | binding result [8]
Zolbetuximab (antibody-B) | 1.7 | 3.05 | 2.13 | 1.21 | – | – | – | – | – | – | –
B1 | – | – | – | – | 0.101 | 1.59 | 0.279 | 0.095 | 0.0527 µg/mL and 0.351 nM | 0.123 µg/mL and 0.82 nM | no binding
B2 | – | – | – | – | – | – | – | – | 0.0319 µg/mL and 0.212 nM | 0.0636 µg/mL and 0.424 nM | no binding
